# ± gives the standard deviation of the averaged measurements.
# Tested on: Saccharomyces cerevisiae
# Assay: protein stability index of tFT-peptide fusion (C-terminal peptide) (PSI (0-1 scale)); higher = more stable (slower turnover)
# Settings: genetic background: doa10 deletion; temperature: 30 C
# Description: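 MPS profiling in S. cerevisiae of the tFT-X12 degron library: putative degron peptides plus stable controls, 12 aa, fused to the C-terminus of a sfGFP-mCherry timer. Cells are FACS-sorted into 8 mCherry/sfGFP bins and deep-sequenced. PSI runs from 0 (unstable) to 1 (stable). Backgrounds are wild type, das1Δ and doa10Δ at 30 °C, and wild type, das1Δ, cdc34-1 and cdc53-1 at 37 °C; 2-3 technical replicates each.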
# 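Also: PSI is a weighted mean of sequencing reads over stability bins, variants kept only with over 10 reads, mCherry proximal and sfGFP distal, peptide attached via GGGS linker.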
row,Sequence,protein stability index
1,HIVYCSSEQIKC,0.482 ± 0.028
2,HLLMLAMVGFQC,0.424 ± 0.0061
3,HVLGSIYWAIFV,0.289 ± 0.0029
4,IGFFFACFFSVF,0.352 ± 0.0041
5,IGWKLNRIQKNI,0.15 ± 0.021
6,IGYLGSELRFVS,0.384 ± 0.017
7,IISICLYFLVRC,0.212 ± 0.0074
8,IKKKKRKKIKAN,0.199 ± 0.013
9,IKWRCLFCVCVL,0.371 ± 0.0045
10,ILFRRRLCCFLK,0.506 ± 0.021
11,ILLHSFFSFYLL,0.289 ± 0.009
12,ILLYCVLIDPYS,0.219 ± 0.011
13,ILVLKFLRLLSA,0.343 ± 0.017
14,ISPCLVRLWYRI,0.103 ± 0.028
15,IVCYFFAFSFMW,0.2859 ± 0.0019
16,IVEVNCILMWIF,0.345 ± 0.037
17,IVGVLAVLVRPV,0.34 ± 0.011

row,Sequence,protein stability index
1,IVIFQTAYVVRI,0.225 ± 0.034
2,IVVVVRLSPILG,0.228 ± 0.013
3,IWIHSVGVECTS,0.315 ± 0.0044
4,IWYGLFWLRFWV,0.444 ± 0.018
5,IYNIIFKYRTIT,0.0671 ± 0.0022
6,KCWSGTVMVRLG,0.164 ± 0.0099
7,KERHRNKRKQIA,0.173 ± 0.0077
8,KERNKISQRKLT,0.143 ± 0.023
9,KFKRLTKFYARQ,0.108 ± 0.0012
10,KHKIIGKYQRQI,0.319 ± 0.017
11,KIIKERIRRIKI,0.153 ± 0.0034
12,KIRGYLMPLTLL,0.4659 ± 0.0027
13,KKKKNIKIKKQI,0.184 ± 0.025
14,KLKTSHILIKQT,0.1562 ± 0.0013
15,KLSLRYLLVSLI,0.101 ± 0.0044
16,KMIVWKESIKRE,0.63 ± 0.014

# Same assay, conditions: genetic background: wild type; temperature: 30 C
row,Sequence,protein stability index
1,HIVYCSSEQIKC,0.483 ± 0.029
2,HLLMLAMVGFQC,0.454 ± 0.022
3,HVLGSIYWAIFV,0.314 ± 0.03
4,IGFFFACFFSVF,0.363 ± 0.022
5,IGWKLNRIQKNI,0.193 ± 0.029
6,IGYLGSELRFVS,0.434 ± 0.04
7,IISICLYFLVRC,0.212 ± 0.015
8,IKKKKRKKIKAN,0.211 ± 0.017
9,IKWRCLFCVCVL,0.375 ± 0.014
10,ILFRRRLCCFLK,0.396 ± 0.018
11,ILLHSFFSFYLL,0.269 ± 0.023
12,ILLYCVLIDPYS,0.229 ± 0.025
13,ILVLKFLRLLSA,0.365 ± 0.028
14,ISPCLVRLWYRI,0.102 ± 0.037
15,IVCYFFAFSFMW,0.288 ± 0.025
16,IVEVNCILMWIF,0.369 ± 0.041
17,IVGVLAVLVRPV,0.376 ± 0.023

row,Sequence,protein stability index
1,IVIFQTAYVVRI,0.173 ± 0.0086
2,IVVVVRLSPILG,0.274 ± 0.016
3,IWIHSVGVECTS,0.358 ± 0.032
4,IWYGLFWLRFWV,0.423 ± 0.023
5,IYNIIFKYRTIT,0.0987 ± 0.019
6,KCWSGTVMVRLG,0.191 ± 0.036
7,KERHRNKRKQIA,0.205 ± 0.035
8,KERNKISQRKLT,0.185 ± 0.018
9,KFKRLTKFYARQ,0.132 ± 0.027
10,KHKIIGKYQRQI,0.338 ± 0.017
11,KIIKERIRRIKI,0.181 ± 0.049
12,KIRGYLMPLTLL,0.432 ± 0.0072
13,KKKKNIKIKKQI,0.215 ± 0.023
14,KLKTSHILIKQT,0.223 ± 0.033
15,KLSLRYLLVSLI,0.115 ± 0.025
16,KMIVWKESIKRE,0.667 ± 0.069

# Same assay, conditions: genetic background: wild type; temperature: 37 C
row,Sequence,protein stability index
1,HIVYCSSEQIKC,0.56 ± 0.032
2,HLLMLAMVGFQC,0.583 ± 0.025
3,HVLGSIYWAIFV,0.499 ± 0.011
4,IGFFFACFFSVF,0.43 ± 0.019
5,IGWKLNRIQKNI,0.436 ± 0.011
6,IGYLGSELRFVS,0.69 ± 0.012
7,IISICLYFLVRC,0.327 ± 0.0058
8,IKKKKRKKIKAN,0.291 ± 0.021
9,IKWRCLFCVCVL,0.453 ± 0.008
10,ILFRRRLCCFLK,0.484 ± 0.021
11,ILLHSFFSFYLL,0.419 ± 0.006
12,ILLYCVLIDPYS,0.361 ± 0.057
13,ILVLKFLRLLSA,0.5261 ± 0.0015
14,ISPCLVRLWYRI,0.168 ± 0.026
15,IVCYFFAFSFMW,0.425 ± 0.024
16,IVEVNCILMWIF,0.469 ± 0.044
17,IVGVLAVLVRPV,0.51 ± 0.017

row,Sequence,protein stability index
1,IVIFQTAYVVRI,0.234 ± 0.01
2,IVVVVRLSPILG,0.401 ± 0.011
3,IWIHSVGVECTS,0.5186 ± 0.005
4,IWYGLFWLRFWV,0.5368 ± 0.0047
5,IYNIIFKYRTIT,0.118 ± 0.016
6,KCWSGTVMVRLG,0.4516 ± 0.0042
7,KERHRNKRKQIA,0.43 ± 0.046
8,KERNKISQRKLT,0.416 ± 0.013
9,KFKRLTKFYARQ,0.334 ± 0.017
10,KHKIIGKYQRQI,0.576 ± 0.015
11,KIIKERIRRIKI,0.286 ± 0.076
12,KIRGYLMPLTLL,0.548 ± 0.028
13,KKKKNIKIKKQI,0.336 ± 0.12
14,KLKTSHILIKQT,0.452 ± 0.011
15,KLSLRYLLVSLI,0.153 ± 0.012
16,KMIVWKESIKRE,0.693 ± 0.022

# Tested on: Saccharomyces cerevisiae
# Assay: as above
# Settings: genetic background: wild type; temperature: 30 C
row,Sequence,protein stability index
1,HIVYCSSEQIKC,0.497 ± 0.0059
2,HLLMLAMVGFQC,0.487 ± 0.017
3,HVLGSIYWAIFV,0.428 ± 0.011
4,IGFFFACFFSVF,0.442 ± 0.065
5,IGWKLNRIQKNI,0.326 ± 0.021
6,IGYLGSELRFVS,0.514 ± 0.037
7,IISICLYFLVRC,0.299 ± 0.045
8,IKKKKRKKIKAN,0.244 ± 0.043
9,IKWRCLFCVCVL,0.422 ± 0.043
10,ILFRRRLCCFLK,0.4735 ± 0.0015
11,ILLHSFFSFYLL,0.30744 ± 1.3e-05
12,ILLYCVLIDPYS,0.344 ± 0.032
13,ILVLKFLRLLSA,0.448 ± 0.031
14,ISPCLVRLWYRI,0.175 ± 0.033
15,IVCYFFAFSFMW,0.362 ± 0.0046
16,IVEVNCILMWIF,0.4398 ± 0.00029
17,IVGVLAVLVRPV,0.466 ± 0.023

row,Sequence,protein stability index
1,IVIFQTAYVVRI,0.213 ± 0.0041
2,IVVVVRLSPILG,0.331 ± 0.034
3,IWIHSVGVECTS,0.486 ± 0.019
4,IWYGLFWLRFWV,0.51 ± 0.055
5,IYNIIFKYRTIT,0.127 ± 0.084
6,KCWSGTVMVRLG,0.34 ± 0.0068
7,KERHRNKRKQIA,0.342 ± 0.038
8,KERNKISQRKLT,0.434 ± 0.024
9,KFKRLTKFYARQ,0.311 ± 0.0089
10,KHKIIGKYQRQI,0.46 ± 0.021
11,KIIKERIRRIKI,0.243 ± 0.032
12,KIRGYLMPLTLL,0.503 ± 0.037
13,KKKKNIKIKKQI,0.276 ± 0.054
14,KLKTSHILIKQT,0.3668 ± 0.0036
15,KLSLRYLLVSLI,0.188 ± 0.049
16,KMIVWKESIKRE,0.535 ± 0.15
